Measurements: publication PMC12041854, “CARM1/PRMT4 facilitates XPF–ERCC1 heterodimer assembly and maintains nucleotide excision repair activity” (Nucleic Acids Research, 2025)
Substitutions are numbered along the chain they refer to.

What was measured:
Assay in all cases: pull-down; in vitro translated and purified XPF WT-Myc or R568K-Myc, with or without in vitro methylation by CARM1-FLAG beads (1 mM S-adenosylmethionine, 50 mM Tris-HCl pH 8.0, 10 mM DTT, 3 h at 30°C), then pulled down with GST-ERCC1; western blot
Conditions in all cases: both partners purified
[1] = target: T1, in vitro translated XPF R568K-Myc (human, UniProt Q92889 1-916, R568K)
T1 construct: also called RK; source: in vitro translated (wheat germ cell-free system); used as reaction mixture, and purified (Ni-NTA, anti-Myc magnetic beads, Myc peptide elution)
T1 sequence: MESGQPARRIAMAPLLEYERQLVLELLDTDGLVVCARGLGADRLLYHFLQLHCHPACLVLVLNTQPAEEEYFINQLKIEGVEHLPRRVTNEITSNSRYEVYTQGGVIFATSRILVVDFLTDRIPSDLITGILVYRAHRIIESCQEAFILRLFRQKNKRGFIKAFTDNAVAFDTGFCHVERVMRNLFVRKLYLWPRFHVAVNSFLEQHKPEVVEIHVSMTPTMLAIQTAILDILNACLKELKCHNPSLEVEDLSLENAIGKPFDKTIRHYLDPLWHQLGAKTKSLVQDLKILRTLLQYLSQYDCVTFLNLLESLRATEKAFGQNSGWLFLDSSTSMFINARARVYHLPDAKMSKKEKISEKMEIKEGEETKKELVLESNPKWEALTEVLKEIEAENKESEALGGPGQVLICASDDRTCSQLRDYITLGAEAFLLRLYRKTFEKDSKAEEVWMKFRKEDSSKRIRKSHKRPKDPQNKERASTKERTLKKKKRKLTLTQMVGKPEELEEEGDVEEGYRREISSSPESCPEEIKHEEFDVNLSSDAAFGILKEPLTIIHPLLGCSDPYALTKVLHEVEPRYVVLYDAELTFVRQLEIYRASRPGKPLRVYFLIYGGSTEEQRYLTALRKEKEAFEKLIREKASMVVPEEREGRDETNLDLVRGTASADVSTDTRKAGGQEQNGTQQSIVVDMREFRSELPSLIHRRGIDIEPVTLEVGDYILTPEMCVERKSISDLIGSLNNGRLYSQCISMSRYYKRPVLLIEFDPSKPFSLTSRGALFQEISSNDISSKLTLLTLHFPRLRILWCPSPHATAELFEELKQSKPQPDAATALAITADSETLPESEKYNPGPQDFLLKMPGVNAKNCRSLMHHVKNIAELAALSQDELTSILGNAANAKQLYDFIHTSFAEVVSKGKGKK

[2] = target: T2, XPF WT-Myc after CARM1-mediated methylation (human, UniProt Q92889 1-916, arginine methylation by CARM1 in vitro; the paper names R568 as the site whose methylation promotes binding to ERCC1)
T2 construct: XPF (xeroderma pigmentosum group F protein), human; also called methylated XPF WT-Myc
T2 sequence: T1 sequence with K568R

[3] = target: T3, XPF R568K-Myc after the in vitro methylation assay with CARM1 (human, UniProt Q92889 1-916, R568K, subjected to the in vitro methylation assay with CARM1; methylated residues not stated)
T3 construct: also called R568K-Myc mutant after methylation assay
T3 sequence: T1 sequence

[4] = target: T4, in vitro translated XPF WT-Myc (human, UniProt Q92889 1-916)
T4 construct: XPF (xeroderma pigmentosum group F protein), human; source: in vitro translated (wheat germ cell-free system, pEU-E01-MCS); used as reaction mixture, and purified (Ni-NTA, anti-Myc magnetic beads, Myc peptide elution)
T4 sequence: T1 sequence with K568R

Measured: binding result

B1: GST-ERCC1 (natural protein, human)
chain: MDPGKDKEGVPQPSGPPARKKFVIPLDEDEVPPGVAKPLFRSTQSLPTVDTSAQAAPQTYAEYAISQPLEGAGATCPTGSEPLAGETPNQALKPGAKSNSIIVSPRQRGNPVLKFVRNVPWEFGDVIPDYVLGQSTCALFLSLRYHNLHPDYIHGRLQSLGKNFALRVLLVQVDVKDPQQALKELAKMCILADCTLILAWSPEEAGRYLETYKAYEQKPADLLMEKLEQDFVSRVTECLTTVKSVNKTDSQTLLTTFGSLEQLIAASREDLALCPGLGPQKARRLFDVLHEPFLKVP
notes: ERCC1 (excision repair cross-complementation group 1), human; also called E1; excision repair cross-complementation group 1; source: E. coli BL21 (pGEX 4T-3), purified (glutathione beads)
binds: [1] | [2] | [3] | [4]
